The target of the assay is integrin β1 (receptor subunit on the seeded cells, blocked with anti-β1 monoclonal antibody) (hamster (baby hamster kidney cells)). In words: cell-based or functional assay.

We go through one substance from US20140287507A1.

Consider “TMV-RGD1 (Tobacco mosaic virus particle whose coat protein carries the insert GRGDSPG extended after T159) (from UniProt P69687 2-159)”, for which the cell attachment on virus coated plate after blocking the cells with integrin specific monoclonal antibody (% drop in attachment) is 25.
